Reference: the supplement of paper PMC9112550, “Optimization of the antimicrobial peptide Bac7 by deep mutational scanning” (BMC Biology, 2022)

Test system: Escherichia coli TOP10
Assay: shrunken log2 fold change of peptide-encoding DNA abundance (4.5 h post-induction vs induction); higher = less antimicrobial activity (less host growth inhibition)
Conditions: time post-induction: 4.5 h; library: site-saturation at positions 5, 18, 19, 20
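Also: peptides expressed intracellularly from a pBAD plasmid library in pooled LB shake-flask culture, induced with 0.3% L-arabinose, DNA abundance read by NGS, three biological replicates, DESeq2 with apeglm shrinkage.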

| Sequence | shrunken log2 fold change |
| --- | --- |
| RRIRARPPRLPRPRPRPWANPRP | 0.201 |
| RRIRMRPPRLPRPRPRPNVRPRP | 0.0272 |
| RRIRIRPPRLPRPRPRPNSGPRP | -0.177 |
| RRIRLRPPRLPRPRPRPEARPRP | 0.142 |
| RRIRIRPPRLPRPRPRPMTHPRP | -0.996 |
| RRIRDRPPRLPRPRPRPKFVPRP | 0.0202 |
| RRIRWRPPRLPRPRPRPRDEPRP | 0.0548 |
| RRIRGRPPRLPRPRPRPLITPRP | 0.676 |
| RRIRKRPPRLPRPRPRPIWMPRP | -0.0467 |
| RRIRCRPPRLPRPRPRPIRYPRP | -1.42 |
| RRIRNRPPRLPRPRPRPGYRPRP | -0.514 |
| RRIRSRPPRLPRPRPRPQQAPRP | 0.0031 |
| RRIRHRPPRLPRPRPRPIQSPRP | -0.0918 |
| RRIRERPPRLPRPRPRPQICPRP | 0.172 |
| RRIRVRPPRLPRPRPRPDNRPRP | -0.00604 |
| RRIRWRPPRLPRPRPRPPWEPRP | 0.541 |
| RRIRTRPPRLPRPRPRPEAGPRP | 0.286 |
| RRIRNRPPRLPRPRPRPNKSPRP | -0.338 |
| RRIRHRPPRLPRPRPRPDWWPRP | 0.0937 |
| RRIRPRPPRLPRPRPRPIQVPRP | 0.0596 |
| RRIRCRPPRLPRPRPRPWVWPRP | -0.00389 |
| RRIRMRPPRLPRPRPRPRWCPRP | 0.273 |
| RRIRFRPPRLPRPRPRPMRTPRP | 0.547 |
| RRIRWRPPRLPRPRPRPHICPRP | 0.00277 |
| RRIRERPPRLPRPRPRPAASPRP | 0.141 |

| Sequence | shrunken log2 fold change |
| --- | --- |
| RRIRTRPPRLPRPRPRPKNKPRP | -0.525 |
| RRIRERPPRLPRPRPRPTTCPRP | 0.0164 |
| RRIRSRPPRLPRPRPRPYHWPRP | -0.479 |
| RRIRMRPPRLPRPRPRPYKVPRP | -0.0176 |
| RRIRERPPRLPRPRPRPRVFPRP | 0.138 |
| RRIRYRPPRLPRPRPRPAFNPRP | -0.431 |
| RRIRMRPPRLPRPRPRPDMQPRP | 2 |
| RRIRARPPRLPRPRPRPNHMPRP | -0.299 |
| RRIRNRPPRLPRPRPRPPVYPRP | 0.111 |
| RRIRNRPPRLPRPRPRPAIYPRP | -0.425 |
| RRIRYRPPRLPRPRPRPVQPPRP | 0.219 |
| RRIRNRPPRLPRPRPRPLLVPRP | -0.199 |
| RRIRDRPPRLPRPRPRPPICPRP | -0.224 |
| RRIRPRPPRLPRPRPRPDPRPRP | 0.649 |
| RRIRRRPPRLPRPRPRPWIMPRP | 0.0607 |
| RRIRIRPPRLPRPRPRPGDHPRP | 0.14 |
| RRIRLRPPRLPRPRPRPDVAPRP | 0.093 |
| RRIRWRPPRLPRPRPRPRTDPRP | 0.342 |
| RRIRDRPPRLPRPRPRPGNWPRP | -0.0358 |
| RRIRKRPPRLPRPRPRPIMIPRP | -0.0532 |
| RRIRARPPRLPRPRPRPIIYPRP | -0.249 |
| RRIRFRPPRLPRPRPRPCWRPRP | -0.199 |
| RRIRMRPPRLPRPRPRPIGLPRP | -0.062 |
| RRIRLRPPRLPRPRPRPMQYPRP | -0.208 |
| RRIRTRPPRLPRPRPRPFRFPRP | -0.00476 |

| Sequence | shrunken log2 fold change |
| --- | --- |
| RRIRYRPPRLPRPRPRPGVTPRP | -0.048 |
| RRIRFRPPRLPRPRPRPREAPRP | 0.115 |
| RRIRWRPPRLPRPRPRPNMKPRP | -0.0784 |
| RRIRCRPPRLPRPRPRPSNDPRP | -0.451 |
| RRIRIRPPRLPRPRPRPIAKPRP | -0.0645 |
| RRIRCRPPRLPRPRPRPGGLPRP | 0.17 |
| RRIRRRPPRLPRPRPRPQINPRP | 0.0135 |
| RRIRMRPPRLPRPRPRPFVMPRP | -0.0957 |
| RRIRARPPRLPRPRPRPPLFPRP | 0.789 |
| RRIRRRPPRLPRPRPRPMLIPRP | -0.0813 |
| RRIRNRPPRLPRPRPRPINLPRP | -0.176 |
| RRIRMRPPRLPRPRPRPTADPRP | 2.84 |
| RRIRRRPPRLPRPRPRPDCQPRP | -0.00305 |
| RRIRARPPRLPRPRPRPHFGPRP | 0.0349 |
| RRIRFRPPRLPRPRPRPCTYPRP | -0.384 |
| RRIRPRPPRLPRPRPRPWIKPRP | -0.0265 |
| RRIRQRPPRLPRPRPRPPFMPRP | 0.213 |
| RRIRHRPPRLPRPRPRPQFMPRP | -0.864 |
| RRIRARPPRLPRPRPRPPRLPRP | 0.829 |
| RRIRQRPPRLPRPRPRPEFLPRP | 0.025 |
| RRIRVRPPRLPRPRPRPKQMPRP | 0.114 |
| RRIRTRPPRLPRPRPRPKRKPRP | 0.0722 |
| RRIRQRPPRLPRPRPRPRCPPRP | 0.313 |
| RRIRDRPPRLPRPRPRPTSDPRP | 0.347 |
| RRIRKRPPRLPRPRPRPKICPRP | 0.0599 |

| Sequence | shrunken log2 fold change |
| --- | --- |
| RRIRDRPPRLPRPRPRPAVSPRP | -0.000946 |
| RRIRARPPRLPRPRPRPWGMPRP | -0.00469 |
| RRIRSRPPRLPRPRPRPCVPPRP | -0.0369 |
| RRIRFRPPRLPRPRPRPYEQPRP | 0.00332 |
| RRIRSRPPRLPRPRPRPDFRPRP | -0.0983 |
| RRIRGRPPRLPRPRPRPHHRPRP | -0.00334 |
| RRIRQRPPRLPRPRPRPYDYPRP | -0.133 |
| RRIRNRPPRLPRPRPRPPSKPRP | -0.161 |
| RRIRLRPPRLPRPRPRPMTIPRP | 0.0154 |
| RRIRPRPPRLPRPRPRPMHTPRP | -0.0538 |
| RRIRVRPPRLPRPRPRPRKFPRP | 0.0551 |
| RRIRWRPPRLPRPRPRPTDEPRP | 0.582 |
| RRIRLRPPRLPRPRPRPLYAPRP | -0.389 |
| RRIRARPPRLPRPRPRPKVKPRP | 0.171 |
| RRIRARPPRLPRPRPRPYLNPRP | -0.914 |
| RRIRRRPPRLPRPRPRPKFTPRP | -0.176 |
| RRIRSRPPRLPRPRPRPVSEPRP | -0.125 |
| RRIRERPPRLPRPRPRPDYNPRP | -0.53 |
| RRIRWRPPRLPRPRPRPVGKPRP | 0.107 |
| RRIRMRPPRLPRPRPRPKQGPRP | -0.000896 |
| RRIRERPPRLPRPRPRPNQRPRP | -0.0506 |
| RRIRYRPPRLPRPRPRPVFTPRP | -0.574 |
| RRIRMRPPRLPRPRPRPDKVPRP | 0.359 |
| RRIRRRPPRLPRPRPRPTNDPRP | 0.263 |
| RRIRARPPRLPRPRPRPIGDPRP | 0.24 |

| Sequence | shrunken log2 fold change |
| --- | --- |
| RRIRYRPPRLPRPRPRPLEHPRP | -0.26 |
| RRIRNRPPRLPRPRPRPSGVPRP | -0.0499 |
| RRIRCRPPRLPRPRPRPECLPRP | -0.109 |
| RRIRERPPRLPRPRPRPVMEPRP | -0.0566 |
| RRIRARPPRLPRPRPRPSFQPRP | -0.0185 |
| RRIRPRPPRLPRPRPRPFHAPRP | -0.0472 |
| RRIRMRPPRLPRPRPRPQGIPRP | -0.154 |
| RRIRERPPRLPRPRPRPGKMPRP | 0.0204 |
| RRIRPRPPRLPRPRPRPYQIPRP | -0.314 |
| RRIRKRPPRLPRPRPRPRTGPRP | 0.376 |
| RRIRYRPPRLPRPRPRPMIRPRP | -0.0021 |
| RRIRFRPPRLPRPRPRPHWTPRP | -0.301 |
| RRIRWRPPRLPRPRPRPWDWPRP | 0.00466 |
| RRIRNRPPRLPRPRPRPGAIPRP | 0.0755 |
| RRIRDRPPRLPRPRPRPMNQPRP | -0.334 |
| RRIRQRPPRLPRPRPRPGKWPRP | 0.362 |
| RRIRYRPPRLPRPRPRPQGHPRP | -0.17 |
| RRIRLRPPRLPRPRPRPAGWPRP | 0.712 |
| RRIRSRPPRLPRPRPRPPYVPRP | -0.215 |
| RRIRFRPPRLPRPRPRPKVQPRP | 0.199 |
| RRIRHRPPRLPRPRPRPHPAPRP | 0.21 |
| RRIRARPPRLPRPRPRPEIDPRP | 1.36 |
| RRIRQRPPRLPRPRPRPMHIPRP | -0.377 |
| RRIRWRPPRLPRPRPRPHRWPRP | 0.103 |
| RRIRLRPPRLPRPRPRPVTLPRP | -0.751 |
